Reference: the DeepSol protein solubility set

assay: soluble on expression in E. coli; label from the status in PepcDB or PDB records

Soluble on expression in E. coli, not soluble:
MHSHLIPGIDDGSKSMEESLSLIQEFKKLGYKKIITTPHIMGDFFKNSKETIFPGLIELRASIAEAGIDIEIEAAAEYYLDEWFIEKLERNEPLLKLGGNYVLFETSYMNRPTQLHQAIFLMRSLGYIPVLAHPERYTYLYEDFKLFKEIYEMDVLFQINLNSLAGYYSKTAKLYAEKLIDNNMVDFVGTDCHGQRHIDVLAKVKVSNYYQKLQKLSILNNTLIS, MNKSHLGTADNPQEVVTAHDIGRLVDVVNVGKGFLRYVGPIHGKDGMFCGIELLEPNGKHDGTFQGVSYFIATPYHGIFAPIFRVTLDAEELPKPPPPNPSNRLSRSALPALQLRNPLTQERKPEEDVMSTSVYVSSSTKPIAIPTKQCRPPETDPMQMSMFSDMMDGSMFSNGSWSDIADSMITSNCTFTVRKGLPIDDDGDLMSVPMVQSVFNIDREALRREEQLQSSIVLGESRIGVEHLPIIEDENELETPLVETRTMPLPNDLNANFSNKNSTTTFVEPETPKVEIRENGNLDNSIETPPQQSPSGSSMVSHESDSSSKKDDTKSDKSPTKKSQKMEEKPVVKKKEEPAAPPPPPKFPVKQKAPSKHQLMMEQLKASIEAEKTKPKKEIKSRVSLLPPPAPKAPQKENKEGGEMTETPRRTITKTPLKTVNAKAKTSPTPPVERQKKERKPLYVAPPAKERVEKEKKIPSKPVVSPPTTAEKKPVVSSIPSTSSASKGPFPTSSFAGGKLQGPRKTSSSSTTTSAKKQKNPPIDEKEKLSRLQHSTHAFEATLIVMNRINEDNERKLGNISEQYEKKVSELGDLKKMLDEARKKFEEDVEQMKNSNQQVIRNHANAVESLQKTHETQIAEKNKEFERNFEEERARREAEVCAMNNRHQKVVACLDEKISEAEKQCEQLNVDKKVLQAALANDCDHRNQMLTKEISSLQTALEMKSAEMKELRQKNQNLSLQVDEIPLKELEISKWKHKSNEYKQMLDQKINGEKILVQQIEDLRRKQIHDEEEKEAMKRSFDLMQFKYENGDDPNVTSVMSAPMESRFSTPTKVQFRSRSSASGSRPISMATSNGGDQRLSTSSHHDDSMNRSTISMYTSHIRLPENHADDVIYAPDEIISSRSGSISQRLAISIENDGEPTIKSESSRIGNTSDSGIGLVM, MTRRGVALVARRLPSSPGRVYAVKIDEGEDVHSVLSSLAEAEDLGFAMVTGIGGMAEATVAFYSPPEATYYTVDVKPPEGRVIEVAAMTGNIVKTSQGYSVHIHVALGVSPGKSISGHLVKGVVKPFMEVFVVELVSGQGTPGTSVFDHREGFKASYKRLEAAALEHHHHHH, MGSDKIHHHHHHMNDAAPTCTGGCTLNVLHTTTYHYSQPVEHAQQRAVATPPDLPWQSVTAHDTRIEPVPTHQHVRTDAFGNRVLHFMLDVPHTQMQLTCASTVVLTPRWQTLDPSASAPWETVAQSLRFHAAQPFEPATQFAFASPNIALHPSLRDYALPSFGAGVPVVAGAMDLMRRIHADFTYHSESTEVHTPAMQAFAQRSGVCQDFAQVMIGCLRSVGVAARYVSGYLCTEPPPGEERLVGADASHAWVSVYCPVAGWVDLDPTNNVLADTRHVTLAWGRDYSDVPLLHGVIVGGGAHGVDVGVTVVPVD, MGSDKIHHHHHHMINQINFKTSHGGSREEGYIDFSASVNPYPPEWTDEMFERAKKISTFYPYYEKLEEELSDLIGEPITITAGITEALYLLGVWMRGRKVIIPKHTYGEYERISRMFGGRVIKGPNDPGKLAEFVERNSFVFFCNPNNPDGKFYREKEMKPLLDAIQDTNSILILDEAFIDFVKKPESPEGENIIRLRTFTKSYGLPGVRVGYVIGFVDAFRSVRMPWSIGSTGVAFLEFLLKDNFKHLRKTLPLIWKEKERIEKELKVKSDANFFIMKVREGIIEKLKENGILVRDCKSFGLPGYIRFSVRRREENDKLINILRKTLNT, MGSDKIHHHHHHMMIHGFQSSHQDFSFGPWKLTASKTHIMKSADVEKLADELHMPSLPEMMFGDNVLRIQHGSGFGIEFNATDALRCVNNYQGMLKVACAEEWQESRTEGEHSKEVIKPYDWTYTTDYKGTLLGESLKLKVVPTTDHIDTEKLKAREQIKFFEEVLLFEDELHDHGVSSLSVKIRVMPSSFFLLLRFFLRIDGVLIRMNDTRLYHEADKTYMLREYTSRESKIANLMHVPPSLFTEPNEISQYLPIKEAVCEKLVFPERIDPNPVDSQSTPSE
